The target of the series is T1, CRP (cAMP receptor protein, CAP) (Escherichia coli) (UniProt P0ACJ8).
T1 sequence: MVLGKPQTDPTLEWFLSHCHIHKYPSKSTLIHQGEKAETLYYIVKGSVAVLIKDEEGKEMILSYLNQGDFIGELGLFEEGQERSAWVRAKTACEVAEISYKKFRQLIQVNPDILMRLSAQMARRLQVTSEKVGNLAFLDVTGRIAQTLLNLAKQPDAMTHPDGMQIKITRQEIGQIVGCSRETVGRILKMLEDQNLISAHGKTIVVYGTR
The experiment in a line: EMSA. Background: Mobility shift assays separate free from complexed probe on a gel.

For “CCAGGTTTCCCAGCACTTTTAATCTGGCGGTTAATGCGACTCCGGCATCCGGTGAAACATCCGGTAAAGGATGCAATACGCCGTCGATACGCAAGCGGATGCGGTAGGC (double strand) [hofB coding fragment]”, the binding entry was “no binding”. “GCACGACAGGTTTCCCGACTGGAAAGCGGGCAGTGAGCGCAACGCAATTAATGTGAGTTAGCTCACTCATTAGGCACCCCAGGCTTTACACTTTATGCTTCCGGCTCGTATGTTGTGTGGAATTGTG (double strand) [lacZ promoter fragment]”: the binding result is reported as “binds”.

The values above are taken from publication PMC1635313.
